Patent US20150119342A1 (published 2015)
Where no end group is shown, it is not given here. [ ]: non-standard residue; d: D form. The star is where a group is joined. 5FAM = O=C1OC2(c3ccc(O)cc3Oc3cc(O)ccc32)c2ccc(C(=O)*)cc21; Abu = CC[C@H](N)C(=O)O

Legend:
[1] = target: T1, human cIAP1 BIR3 domain with C-terminal 6xHis-tag (human, UniProt Q13490 251-363, limits assumed); experiment: fluorescence polarization, saturation binding; 2 nM probe, protein 0 to 20 µM
T1 construct: domain: BIR3
Protocol: (§1) After shaking (15 min) the plate was incubated for 3 hours at room temperature. […] All experiments were performed in black, flat-bottom 96-well microplates (Greiner bio-one).

[2] = target: T2, human cIAP2 BIR3 domain with C-terminal 6xHis-tag (human, UniProt Q13489 237-349, limits assumed); experiment: as above
T2 construct: domain: BIR3
Protocol: as §1

T1 sequence (Q13490 other isoform, or with tags, fused parts or gaps limits assumed): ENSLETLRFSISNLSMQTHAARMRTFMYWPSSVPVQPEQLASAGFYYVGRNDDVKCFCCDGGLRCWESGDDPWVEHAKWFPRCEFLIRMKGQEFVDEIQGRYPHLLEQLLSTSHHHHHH
T2 sequence (Q13489 other isoform, or with tags, fused parts or gaps limits assumed): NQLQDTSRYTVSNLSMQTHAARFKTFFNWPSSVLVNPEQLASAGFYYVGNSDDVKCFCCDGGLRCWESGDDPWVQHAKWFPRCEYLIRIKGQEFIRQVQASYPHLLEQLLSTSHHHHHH

B1: Fluorescent-labelled Smac peptide [AbuRPF-K(5-Fam)-NH2] (peptide)
peptide: [Abu]RPFK(5FAM)-NH2
modifications: N-terminus assumed
SMILES: CC[C@H](N)C(=O)N[C@@H](CCCNC(=N)N)C(=O)N1CCC[C@H]1C(=O)N[C@@H](Cc1ccccc1)C(=O)N[C@@H](CCCCNC(=O)c1ccc2c(c1)C(=O)OC21c2ccc(O)cc2Oc2cc(O)ccc21)C(N)=O
notes: Synthetic labelled probe used in the fluorescence polarization assays; also called FITC-SMAC; fluorescently-labelled Smac peptide
For B1, which Kd [1] is on record?
Its Kd is 4.8 nM.

What about the Kd [2] of the same binder?
Its Kd is 23.6 nM.
